Measured values as given in patent US20140140926A1.
No end group written: not given here.

Tests used:
[1] = target: soluble hSIRP-alpha (human) (UniProt P78324); assay: flow cytometry, biotinylated peptide on streptavidin polystyrene beads binding soluble hSIRP-alpha, saturation binding fit
[2] = target: soluble hSIRP-alpha (human) (UniProt P78324); assay: inhibition of soluble hSIRP-alpha binding to polypeptide beads by soluble peptide

| Kd [1] | Ki [2] | Binder |
| --- | --- | --- |
| 110 to 160 nM | – | GNYTCEVTELTREGETIIELK (also: biotin via aminohexanoic acid (C6) or PEG linker, site not given here) [FG-peptide (21-aa, …)] |
| – | 100 to 200 nM | EVTELTREGE (synthesized without attachment of biotin) [FG-hairpin (10-aa, …)] |
